# Source: patent US20250340623A1 (AC IMMUNE, published 2025)
# Numbering of substitutions follows the chain as printed. Where no end group is shown, it is not given here. The star is where a group is joined. Biotin = O=C1N[C@H]2[C@H](CS[C@H]2CCCCC(=O)*)N1; Ahx = NCCCCCC(=O)O
# T1: 64-78aa
# T1 construct: also called alpha-synuclein peptide 64-78
# T1 peptide: {Biotin-Ahx}-TNVGGAVVTGVTAVA
# T2: 82-96aa
# T2 construct: also called alpha-synuclein peptide 82-96
# T2 peptide: {Biotin-Ahx}-VEGAGSIAAATGFVK
# T3: 91-105aa
# T3 peptide: {Biotin-Ahx}-ATGFVKKDQLGKNEE
# T4: 118-132aa
# T4 peptide: {Biotin-Ahx}-VDPDNEAYEMPSEEG
# T5: 127-140aa
# T5 peptide: {Biotin-Ahx}-MPSEEGYQDYEPEA
# T6: 1-14aa
# T6 construct: also called alpha-synuclein peptide 1-14
# T6 peptide: MDVFMKGLSKAKEG-biotin
# T7: 1-15aa
# T7 construct: also called alpha-synuclein peptide 1-15
# T7 peptide: {Biotin-Ahx}-MDVFMKGLSKAKEGV
# T8: 10-24aa
# T8 construct: also called alpha-synuclein peptide 10-24
# T8 peptide: {Biotin-Ahx}-KAKEGVVAAAEKTKQ
# T9: 46-60aa
# T9 construct: also called alpha-synuclein peptide 46-60
# T9 peptide: {Biotin-Ahx}-EGVVHGVATVAEKTK
# B1: ACI-7079-2503C6-Ab1 (antibody, V domains shown)
# VH: DVQLQESGPGLVKPSQSLSLTCSVTGYSITSGYYWNWIRLFPGNKLEWLGYINYDGSNNFNPSLKNRISITRDTSKNQFFLKLNSVTSEDTATYFCLRGDWDWGQGTLVTVSA
# VL: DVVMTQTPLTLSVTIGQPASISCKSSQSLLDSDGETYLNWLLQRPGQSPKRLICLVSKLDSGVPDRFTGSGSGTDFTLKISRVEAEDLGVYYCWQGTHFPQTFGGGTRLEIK
# notes: mouse hybridoma mAb; VH/VL only; also called 2503C6H9
# B2: ACI-7067-1101C8-Ab2 (antibody, V domains shown)
# VH: EVQLVESGGGLVQPKGSLKLSCAASGFSFNIYAMNWVRQAPGKGLEWVARIRSKSNNYATYYADSVKDRFTISRADSESMLYLQMNNLKTEDTAMYYCVRVGLRFYAMDYWGQGTSVTVSS
# VL: DVLMTQTPLSLPVSLGDQASISCRSSQSIVHSNGNTYLEWYLQKPGQSPKLLIYKVSNRFSGVPDRFSGSGSGTDFTLKISRVEAEDLGVYYCFQGSQGPLTFGAGTKLELK
# notes: mouse hybridoma mAb; VH/VL only; also called 1101C8F7
# B3: ACI-7067-1108H1-Ab1 (antibody, V domains shown)
# VH: EVKLVESGGGLVQPGGSMKLSCTASGFTFSDAWMNWVRQSPEKGLEWVAEIRNKAHNHATNYAESVKGRFTISGDDSKSSVYLQMNNLRAEDTGIYYCTIYSFWGQGTLVTVSA
# VL: SIVMTQTPKFLLVSAGDRVTITCKASQSVTNYVAWYHQKPGQSPKLLIYSASNRYSGVPDRFTGSGYGTDFTFTINTVQTEDLAVYFCQQDYRIPYTFGGGTKLEIK
# notes: mouse hybridoma mAb; VH/VL only; also called 1108H1E1
# B4: ACI-7067-1116F2-Ab1 (antibody, V domains shown)
# VH: DVQLQESGPGFVKPSQSLSLTCSVTGYSITRGFYWNWIRQFPGNKLEWMGYISDDGNSNYNPSLKNRISITRDTFKNQVFLRLNSVTTEDTATYYCTRGDLLWGQGTTLTVSS
# VL: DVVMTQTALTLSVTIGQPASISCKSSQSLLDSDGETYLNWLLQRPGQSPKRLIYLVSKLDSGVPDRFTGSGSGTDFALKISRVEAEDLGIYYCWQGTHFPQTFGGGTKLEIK
# notes: mouse hybridoma mAb; VH/VL only; also called 1116F2A2
# B5: ACI-7067-1107G5-Ab2 (antibody, V domains shown)
# VH: QVQLQQPGTELVKPGASVKLSCKASGYTFTKYWMHWVKQRPGQGLEWIGNINPNNGDTNYNEKFKSKATLTVDKSSSTAYMQLSSLTSEDSAVYYCAIAMDYWGQGTSVTVSS
# VL: DIQMTQSPSSLSAFLGERVSLTCRASQDIGNNLNWFQQEPDGTIKRLIYATSSLDSGVPKRFSGSRSGSEYSLTISSLESEDFVDYYCLQFGSSPLTFGAGTKLELK
# notes: mouse hybridoma mAb; VH/VL only; also called 1107G5B6
# B6: ACI-7067-1111B12-Ab2 (antibody, V domains shown)
# VH: B5 VH with Q5L, E10A, K13M, K31T, N54I, D57G, T58S, T69S, A97V
# VL: B5 VL with F14S, N31I, N32S, S65N, E70D, V84A, G92A
# notes: mouse hybridoma mAb; VH/VL only; also called 1111B12H10
# B7: ACI-7079-2501G2-Ab2 (antibody, V domains shown)
# VH: B2 VH with S28N, I31T, S53T, Y58F, D64H, A75D, V101Q, R104A, F105Y
# VL: B2 VL with A19V, S28T
# notes: mouse hybridoma mAb; VH/VL only; also called 2501G2E5
# B8: ACI-7079-2506E2-Ab2 (antibody, V domains shown)
# VH: QVQLQQSGPELVRPGASVKISCKASGYAFSNSWMNWVKQRPGKGLEWIGRIFPGDGDTYYDGKFKGKVKLTTDKFSNTAYMQLRSLTSEDSAVYFCARWGGTNDEWFAHWGQGTLVTVSV
# VL: DIVLTQSPASLTVSLGQRATISCRASQSVSTSRNSYMHWYQQKPRQPPKLLIKYASNLESGVPARFSGSGSGADFTLNIHPVEEEDTATYYCQHSWDIPLTFGTGTKLELS
# notes: mouse hybridoma mAb; VH/VL only; also called 2506E2G4
# B9: ACI-7067-1102G3-Ab1 (antibody, V domains shown)
# VH: B3 VH with V5E, T23A, N61Y, F103Y
# VL: B3 VL with N31K, Y32D, H37Q, A51T
# notes: mouse hybridoma mAb; VH/VL only; also called 1102G3F2
# B10: ACI-7067-1112H8-Ab2 (antibody, V domains shown)
# VH: B3 VH with V5E, T23A, S30T, V48I, H58Y, N61Y, T71D, A90V, F103Y, Q106P
# VL: SIVMTQTPKFLLMSPGDRVTMTCTASQSVSNYVAWYQQKPGQSPKLLIYSASNRFTGVPDRFTGSGYGTDFTFTINTVQTEDMAVYFCQQDYTSPYTFGGGTKLEIK
# notes: mouse hybridoma mAb; VH/VL only; also called 1112H8C12
# B11: ACI-7079-2511B3-Ab3 (antibody, V domains shown)
# VH: B1 VH with Y27F, G32Y, L40Q, L49M, G50A, N53S, F60Y, S88T, F95Y, L97T
# VL: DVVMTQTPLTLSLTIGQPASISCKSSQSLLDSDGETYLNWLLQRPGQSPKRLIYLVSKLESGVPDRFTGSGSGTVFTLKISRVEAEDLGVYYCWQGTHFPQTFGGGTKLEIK
# notes: mouse hybridoma mAb; VH/VL only; also called 2511B3B12
# Biological target: alpha-synuclein seeds (UniProt P37840 1-140)
# Test: cell-based or functional assay
row,Binder,"aggregation half-time (τ1/2) of seeded alpha-synuclein aggregation, ThT; no antibody 26.9 hours [h]"
1,B1,22.5
2,B2,64
3,B3,28

# Biological target: T1, 64-78aa
# Test: indirect ELISA on biotinylated 15-mer peptide
# Experimental: (§1) Serum-free supernatants were harvested from stable hybridomas. The supernatants containing antibodies of interest were then screened by an indirect ELISA assay to determine epitopes. Epitopes were first determined using a library of 15-mer peptides covering the entire sequence of human alpha-synuclein protein, spanning amino acids (aa) 1-140 with 9aa offset and […] overlap. […] Briefly, streptavidin-coated ELISA plates were blocked overnight at 4° C. […] Plates were washed with PBS/0.05% Tween®20 and then incubated with the hybridoma supernatants at 1/100 dilution for 1 hour at 25° C.
row,Binder,binding result
1,B2,no binding (tested: supernatant 1/100)
2,B4,no binding (tested: supernatant 1/100)
3,B5,no binding (tested: supernatant 1/100)
4,B6,no binding (tested: supernatant 1/100)

# Biological target: T2, 82-96aa
# Test: indirect ELISA on biotinylated 15-mer peptide
# Experimental: as §1
row,Binder,binding result
1,B2,no binding (tested: supernatant 1/100)
2,B7,no binding (tested: supernatant 1/100)
3,B8,no binding (tested: supernatant 1/100)
4,B9,no binding (tested: supernatant 1/100)
5,B10,no binding (tested: supernatant 1/100)
6,B3,no binding (tested: supernatant 1/100)
7,B5,no binding (tested: supernatant 1/100)
8,B6,no binding (tested: supernatant 1/100)

# Biological target: T3, 91-105aa
# Test: indirect ELISA on biotinylated 15-mer peptide
# Experimental: as §1
row,Binder,binding result
1,B1,no binding (tested: supernatant 1/100)
2,B11,no binding (tested: supernatant 1/100)
3,B7,no binding (tested: supernatant 1/100)
4,B8,no binding (tested: supernatant 1/100)

# Biological target: T4, 118-132aa
# Test: indirect ELISA on biotinylated 15-mer peptide
# Experimental: as §1
row,Binder,binding result
1,B1,no binding (tested: supernatant 1/100)
2,B11,no binding (tested: supernatant 1/100)
3,B4,no binding (tested: supernatant 1/100)
4,B9,no binding (tested: supernatant 1/100)
5,B10,no binding (tested: supernatant 1/100)
6,B3,no binding (tested: supernatant 1/100)
7,B5,no binding (tested: supernatant 1/100)
8,B6,no binding (tested: supernatant 1/100)

# Biological target: T5, 127-140aa
# Test: indirect ELISA on biotinylated 15-mer peptide
# Experimental: as §1
row,Binder,binding result
1,B1,no binding (tested: supernatant 1/100)
2,B11,no binding (tested: supernatant 1/100)
3,B2,no binding (tested: supernatant 1/100)
4,B7,no binding (tested: supernatant 1/100)
5,B4,no binding (tested: supernatant 1/100)
6,B8,no binding (tested: supernatant 1/100)
7,B9,no binding (tested: supernatant 1/100)
8,B10,no binding (tested: supernatant 1/100)
9,B3,no binding (tested: supernatant 1/100)
10,B5,no binding (tested: supernatant 1/100)
11,B6,no binding (tested: supernatant 1/100)

# Biological target: T6, 1-14aa
# Test: indirect ELISA on biotinylated 15-mer peptide
# Experimental: as §1
row,Binder,binding result
1,B1,no binding (tested: supernatant 1/100)
2,B11,no binding (tested: supernatant 1/100)
3,B7,no binding (tested: supernatant 1/100)
4,B8,no binding (tested: supernatant 1/100)

# Biological target: T7, 1-15aa
# Test: indirect ELISA on biotinylated 15-mer peptide
# Experimental: as §1
row,Binder,binding result
1,B1,no binding (tested: supernatant 1/100)
2,B11,no binding (tested: supernatant 1/100)
3,B7,no binding (tested: supernatant 1/100)
4,B8,no binding (tested: supernatant 1/100)

# Biological target: T8, 10-24aa
# Test: indirect ELISA on biotinylated 15-mer peptide
# Experimental: as §1
row,Binder,binding result
1,B1,no binding (tested: supernatant 1/100)
2,B11,no binding (tested: supernatant 1/100)
3,B7,no binding (tested: supernatant 1/100)
4,B8,no binding (tested: supernatant 1/100)

# Biological target: T9, 46-60aa
# Test: indirect ELISA on biotinylated 15-mer peptide
# Experimental: as §1
row,Binder,binding result
1,B1,no binding (tested: supernatant 1/100)
2,B11,no binding (tested: supernatant 1/100)
3,B2,no binding (tested: supernatant 1/100)
4,B7,no binding (tested: supernatant 1/100)
5,B4,no binding (tested: supernatant 1/100)
6,B8,no binding (tested: supernatant 1/100)
7,B9,no binding (tested: supernatant 1/100)
8,B10,no binding (tested: supernatant 1/100)
9,B3,no binding (tested: supernatant 1/100)

# Biological target: T1, 64-78aa
# Test: indirect ELISA on biotinylated 15-mer peptide, supernatant 1/100
# Experimental: as §1
row,Binder,binding result
1,B9,binds
2,B10,binds
3,B3,binds

# Biological target: T2, 82-96aa
# Test: as above
# Experimental: as §1
row,Binder,binding result
1,B1,binds
2,B11,binds
3,B4,binds

# Biological target: T4, 118-132aa
# Test: as above
# Experimental: as §1
row,Binder,binding result
1,B2,binds
2,B7,binds
3,B8,binds

# Biological target: T9, 46-60aa
# Test: as above
# Experimental: as §1
row,Binder,binding result
1,B5,binds
2,B6,binds
